# T1: CREB B-ZIP domain (UniProt P16220 269-327)
# T1 sequence: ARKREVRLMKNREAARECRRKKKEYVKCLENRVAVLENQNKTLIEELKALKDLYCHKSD
# B1: CREB (CRE) 28-mer (dsDNA)
# DNA 1: GTCAGTCAGATGACGTCATATCGGTCAG
# DNA 2: CTGACCGATATGACGTCATCTGACTGAC
# Molecular target: T1, CREB B-ZIP domain
# Assay: EMSA
binder,measurement,value
B1,binding result,binds

# Reference: paper PMC7377350
